{"source": "patent US20210371505A1", "about": "(Regeneron, published 2021)", "binders": {"B1": {"name": "H1H14611N2 (antibody, V domains shown)", "VH": "EVQLVESGGGLVKPGGSLRLSCAASGFTFSGFSMNWVRQVPGKGLEWVSSISTSGNYMYYADSVKGRFTISRDNAKKSFSLQMNSLRAEDSAIYYCARGGGYNWNLFDYWGQGSLVTVSS", "VL": "EIVLTQSPGTLSLSPGERATLSCRASQSLNSNYLAWYQQKPGQAPRLLIYGASSRATGIPDRFSGSGSGTDFTLTITRLESEDFAVYYCQQYGNSPLTFGGGTKVEIK"}}, "assay_in_all_cases": "cell-based or functional assay", "key": {"[1]": {"molecular_target": "T1, Hemagglutinin of influenza virus A/Aichi/02/1968-PR8-X31 (H3N2) (Influenza A virus …, UniProt P03437 17-566)"}, "[2]": {"molecular_target": "T1, Hemagglutinin of influenza virus …", "remark": "listed apart in the source"}, "[3]": {"molecular_target": "Hemagglutinin of influenza virus A/Philippines/01/1982 (H3N2) (Influenza A virus A/Philippines/01/1982 …)"}, "[4]": {"molecular_target": "Hemagglutinin of influenza virus A/Shanghai/01/2013-PR8 (H7N9) (Influenza A virus …)"}}}
{"binder": "B1", "values": [{"measurement": "EC50, complement-dependent cytotoxicity of virus-infected MDCK cells", "setting": "[1]", "value": 140, "unit": "nM"}, {"measurement": "IC50 of neutralization, cell viability microneutralization assay on MDCK cells", "setting": "[2]", "value": 7.83, "unit": "nM"}, {"measurement": "IC50 of neutralization, cell viability microneutralization assay on MDCK cells", "setting": "[3]", "value": 68.4, "unit": "nM"}, {"measurement": "IC50 of neutralization, cell viability microneutralization assay on MDCK cells", "setting": "[4]", "value": 405, "unit": "nM"}]}
